Test results published in US20050048055A1.

Target: mouse CD40 on BALB/c thymocytes (mouse) (UniProt P27512)
Assay: cell-based or functional assay

Chain of UniProt P27512 (P27512 20-289): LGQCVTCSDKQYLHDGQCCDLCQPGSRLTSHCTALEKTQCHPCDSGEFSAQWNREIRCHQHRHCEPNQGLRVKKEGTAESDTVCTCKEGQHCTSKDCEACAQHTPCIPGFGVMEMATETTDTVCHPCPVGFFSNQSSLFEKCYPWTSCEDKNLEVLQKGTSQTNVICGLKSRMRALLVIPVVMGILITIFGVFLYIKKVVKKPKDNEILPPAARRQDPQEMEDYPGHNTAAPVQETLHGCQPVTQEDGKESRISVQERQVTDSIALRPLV

increase in Vα8 expression in gated DP thymocytes: 12%
percent Vα11+ thymocytes: 3.3%
Substance: rat IgG anti-mouse CD40, 1C10 (antibody)
